This is an account of results in article PMC11915804, “In situ structures of the contractile nanomachine myophage Mu in both its extended and contracted states” (Journal of Virology, 2025).

One data set addresses T1, hub protein gp44 (phage Mu, UniProt P08558 1-379).
T1 construct: baseplate hub protein gp44 of myophage Mu, as it stands in the virion; Trimer; Model deposited here; source: phage Mu virions grown on E. coli (ATCC 23724), purified (PEG 8000/NaCl precipitation, CsCl gradient)
T1 sequence (looked up): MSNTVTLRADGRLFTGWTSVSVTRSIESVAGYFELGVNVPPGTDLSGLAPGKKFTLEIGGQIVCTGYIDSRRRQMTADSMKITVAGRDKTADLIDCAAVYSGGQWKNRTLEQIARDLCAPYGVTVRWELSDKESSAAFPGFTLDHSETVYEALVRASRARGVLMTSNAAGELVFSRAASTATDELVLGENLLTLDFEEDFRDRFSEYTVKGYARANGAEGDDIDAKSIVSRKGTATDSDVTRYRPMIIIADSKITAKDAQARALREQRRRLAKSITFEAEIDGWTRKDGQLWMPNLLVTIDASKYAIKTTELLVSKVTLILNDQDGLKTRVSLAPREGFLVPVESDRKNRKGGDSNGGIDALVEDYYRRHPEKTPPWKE
Nature of the data set: cryo-EM structure; purified phage Mu virions in the extended state (native phage) in phage buffer (10 mM MgCl2, 5 mM NaCl, 10 mM Tris-HCl, pH 7.4); icosahedral, symmetry-mismatch and local reconstruction; 3.2 Å (3-fold capsid), 3.4 Å (portal-adaptor), 3.5 Å (terminator-tail), 3.3 Å (baseplate). The settings on record: both partners purified.

Data set [1] concerns the molecule itself. Described as above.

B1: spike protein gp45 (natural protein, phage Mu, UniProt Q9T1V4 1-197, looked up)
chain: MERVNDSALNRLLTPLMRRVRLMLARAVVNVINDGRKVQNLQVGLLDDEESDEVERLQNYGHFSVPLPGAEALIACVGAQRDQGIAVVVEDRRYRPTNLEPGDAGIYHHEGHRIRLTKDGRCIITCKTVEVYADESMTVDTPRTTFTGDVEIQKGLGVKGKSQFDSNITAPDAIINGKSTDKHIHRGDSGGTTGPMQ
notes: baseplate spike protein gp45 of myophage Mu, as it stands in the virion; Trimer; Model deposited here; source: phage Mu virions grown on E. coli (ATCC 23724), purified (PEG 8000/NaCl precipitation, CsCl gradient)
With B1, the binding result in the data set with hub protein gp44 was “binds”. In data set [1], the “stoichiometry N” value amounted to 3.

As a reminder, the stoichiometry N is a count of units in the complex or per binding partner.
